Assay [1] deals with T1, cpTatC (pea (endogenous in pea thylakoids)). The experiment in a line: co-IP.
The target in assay [2] is T1, cpTatC. Put plainly: radioligand binding.

For orientation: stoichiometry N means the number of molecules, sites or subunits per partner or assembly. Broadly, the Kd is the constant that tells how readily two partners part at equilibrium. Low readings indicate a tighter complex, high ones a looser complex.

B1: tOE17 V-20F precursor protein (natural protein)
chain: MASAEGDAVAQAGRRAFIGLVATGIVGGALSQAARAETVKTIKIGAPPPPSGGLPGTLNSDQARDFDLPLKERFYLQPLPPAEAAARVKTSAQDIINLKPLIDKKAWPYVQNDLRLRASYLRYDLKTVIASKPKEEKKSLKELTGKLFSTIDDLDHAAKIKSTPEAEKYFAATKDALGDVLAKLG
modifications: [3H]-Leu radiolabel (unlabeled tOE17 used as the chase in the dissociation test)
For the molecule B1, in the assay with cpTatC [1], the “stoichiometry N” value was 0.79 tOE17 per cpTatC. In the assay with cpTatC [2], the Kd came to 1.07 nM and the “stoichiometry N” value worked out at 1.27 tOE17 per cpTatC.

The values above are taken from article PMC3352945 (The Journal of Cell Biology, 2012).
